Measurements published in article PMC4509764.

How the values were obtained:
[1] = biological target: T1, NanR (Clostridium perfringens strain 13) (UniProt P26833); experiment: EMSA; conditions: 20 mM HEPES pH 7.6, 1 mM EDTA, 10 mM ([…], room temperature 20 min
T1 sequence: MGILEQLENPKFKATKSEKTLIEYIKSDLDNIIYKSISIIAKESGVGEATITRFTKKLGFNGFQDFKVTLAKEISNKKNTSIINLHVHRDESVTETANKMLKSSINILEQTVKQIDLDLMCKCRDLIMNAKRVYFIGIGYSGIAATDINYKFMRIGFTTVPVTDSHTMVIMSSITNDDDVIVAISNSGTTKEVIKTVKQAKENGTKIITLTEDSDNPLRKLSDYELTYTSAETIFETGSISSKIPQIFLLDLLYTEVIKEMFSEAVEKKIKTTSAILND

[2] = biological target: T1, NanR (Clostridium perfringens strain 13); experiment: competition; conditions: 20 mM HEPES pH 7.6, 1 mM EDTA, 10 mM ([…], room temperature 20 min

| Sequence | binding [1] | binding [2] |
| --- | --- | --- |
| ATATTTTGATACATGCTCTTTTTTTATGAAATAAATTTTCAAAAACAAAAATTATAGGAATAAAAGTGAAAAAAATATGAATAAAAATGGCTTGAAACATAGGTTGTAGGCATATTTGGAAAAACTAAGAACCATAAAATAGAAAAATATTTTCAAAAAGTATTGAAATTCTGTGGGAAAAGGATTACAATAAAAACATAAAGAAAATAATTTTCAGAAAAAAGGTGATAAAATG (double strand) [nanE promoter probe] | binds | binds |
| CTTTCAATAATTACCCCTCCTAATTTATTTCATTAGTATTTATTATATGGTTCTTAACTTAATTATAACTTATTTCTAGGGAAAGTTATTATTAATTAGTAGATAAATATAAAATTTGCGTAGTATAAACTGTATTTTATACAATTTTAGTAATATTAAAGCTTATTTAAACGTATACATAATATAAGGTC (double strand) [nanJ promoter probe] | binds more weakly | – |
